Measurements: the supplement of paper PMC7125110
± gives the standard error. Fewer inactive variants are shown than the library holds.

B1: glmS ribozyme (parent)
chain: AUAAAAGCGCCAGAACUACAGAAAUGUAGUUGACGAGGAGGAGGUUUAUCGAAUUUUCGGCGGAUGCCUCCAAA

Tests used:
Conditions in all cases: with glucosamine-6-phosphate
glucosamine-6-phosphate [1] = variants of: B1; test: self-cleavage kobs at 40 uM GlcN6P; higher = faster cleavage; RNA array
Outline: (§1)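 Glucosamine-6-phosphate (40 μM to 10 mM) in HEPES/KCl/Mg(OAc)2 buffer was flowed over sequenced MiSeq chips, and tiles were imaged over ~14 h. Barcoded ribozyme variants there had been transcribed in situ by E. coli RNA polymerase and were tracked through a hybridised Cy3 probe at 37 °C. One- or two-exponential decay fits to per-tile medians, normalised to baseline and to non-cleaving reference variants, gave kobs. kcat and KM came from weighted Michaelis–Menten fits across concentrations.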

glucosamine-6-phosphate [2] = variants of: B1; test: self-cleavage kobs at 10000 uM GlcN6P; higher = faster cleavage; RNA array
Outline: as §1

glucosamine-6-phosphate [3] = variants of: B1; test: self-cleavage kobs at 160 uM GlcN6P; higher = faster cleavage; RNA array
Outline: as §1

glucosamine-6-phosphate [4] = variants of: B1; test: self-cleavage kobs at 640 uM GlcN6P; higher = faster cleavage; RNA array
Outline: as §1

glucosamine-6-phosphate [5] = variants of: B1; test: self-cleavage kobs at 2500 uM GlcN6P; higher = faster cleavage; RNA array
Outline: as §1

Row | Variant | self-cleavage kobs at 40 uM GlcN6P (glucosamine-6-phosphate [1]) [s⁻¹] | self-cleavage kobs at 10000 uM GlcN6P (glucosamine-6-phosphate [2]) [s⁻¹] | self-cleavage kobs at 160 uM GlcN6P (glucosamine-6-phosphate [3]) [s⁻¹] | self-cleavage kobs at 640 uM GlcN6P (glucosamine-6-phosphate [4]) [s⁻¹] | self-cleavage kobs at 2500 uM GlcN6P (glucosamine-6-phosphate [5]) [s⁻¹]
1 | AUAAAAGCGCCAGAACUACAGAAAUGUAGUUGACGAGGAGGAGGUGGAUCGAAUUUUCGGCGGAUGACUCCAAA | 7.27e-05 ± 2e-05 | 0.0021 ± 0.00039 | – | – | –
2 | AUAAAAGCGCCAGAACUACAGAAAUGUAGUUGACGAGGAGGAGGUUAAUCGAGUUUUCGGCGGAUGCCUCCAAA | 0.000816 ± 9.9e-05 | 0.04 ± 0.011 | 0.00166 ± 0.0003 | 0.00725 ± 0.0013 | 0.0106 ± 0.0028
3 | AUAAAAGCGCCAGAACUACAGAAAUGUAGUUGACGAGGAGGAGGUUAAUCGACUUUUCGGCGGAUGCCUCCAAA | 0.000173 ± 2.9e-05 | 0.00663 ± 0.0016 | 0.000506 ± 7.8e-05 | 0.00103 ± 0.00018 | 0.00465 ± 0.001
4 | AUAAAAGCGCCAGAACUACAGAAAUGUAGUUGACGAGGAGGAGGUGUAUCGAUUUUUCGGCGGAUGCCCCCAAA | 7.38e-05 ± 2.7e-05 | 0.00109 ± 0.0003 | – | – | –
5 | AUAAAAGCGCCAGAACUACAGAAAUGUAGUUGACGAGGAGGAGGUUAAUCGAAUUUUCGGCUGAUGCCUCCAAA | < 1e-05 | < 1e-05 | < 1e-05 | < 1e-05 | < 1e-05
6 | AUAAAAGCGCCAGAACUACAGAAAUGUAGUUGACGAGGAGGAGGUCUAUCGAAUUUUCGGCUGAUGCCUCCAAA | < 1e-05 | < 1e-05 | < 1e-05 | – | –
7 | AUAAAAGCGCCAGAACUACAGAAAUGUAGUUGACGAGGAGGAGGUAUAUCGAAUUUCCGGCGGAUGCCUCCAAA | < 1e-05 | – | – | – | –
8 | AUAAAAGCGCCAGAACUACAGAAAUGUAGUUGACGAGGAGGAGGUAUAUCGAAUUUGCGGCGGAUGCCUCCAAA | < 1e-05 | – | < 1e-05 | – | –
9 | AUAAAAGCGCCAGAACUACAGAAAUGUAGUUGACGAGGAGGAGGUGUACCGAAUUUUCGGCGGAUGCCUCCAAA | < 1e-05 | < 1e-05 | < 1e-05 | < 1e-05 | < 1e-05
10 | AUAAAAGCGCCAGAACUACAGAAAUGUAGUUGACGAGGAGGAGGUGUAUCGAAUUUUCGGCGGAUCCCUCCAAA | 0.000227 ± 3.8e-05 | – | 0.000418 ± 0.00013 | 0.00135 ± 0.00038 | 0.00594 ± 0.0017
11 | AUAAAAGCGCCAGAACUACAGAAAUGUAGUUGACGAGGAGGAGGUCUAUCGAAUUUUCCGCGGAUGCUUCCAAA | < 1e-05 | – | – | – | –
12 | AUAAAAGCGCCAGAACUACAGAAAUGUAGUUGACGAGGAGGAGGUGUAUCGAAUUUUCGGGGGAUGCCUCCAAA | < 1e-05 | < 1e-05 | < 1e-05 | < 1e-05 | –
13 | AUAAAAGCGCCAGAACUACAGAAAUGUAGUUGACGAGGAGGAGGUUCAUCGAAUUUUCGGUGGAUGCCUCCAAA | < 1e-05 | < 1e-05 | < 1e-05 | < 1e-05 | < 1e-05
14 | AUAAAAGCGCCAGAACUACAGAAAUGUAGUUGACGAGGAGGAGGUGUAUCGAAUUUUCGGCGGAUGCCUUCAAA | 0.000256 ± 2.3e-05 | 0.00705 ± 0.00083 | 0.000556 ± 8.8e-05 | 0.00125 ± 0.0002 | 0.00235 ± 0.00055
15 | AUAAAAGCGCCAGAACUACAGAAAUGUAGUUGACGAGGAGGAGGUGUAUCUAAUUUUCGGCGGAUGCCUCCAAA | < 1e-05 | < 1e-05 | < 1e-05 | < 1e-05 | < 1e-05
16 | AUAAAAGCGCCAGAACUACAGAAAUGUAGUUGACGAGGAGGAGGUCUAUCUAAUUUUCGGCGGAUGCCUCCAAA | < 1e-05 | – | < 1e-05 | < 1e-05 | < 1e-05
17 | AUAAAAGCGCCAGAACUACAGAAAUGUAGUUGACGAGGAGGAGGUUAAUCGAAUUUGUGGCGGAUGCCUUCAAA | < 1e-05 | – | – | – | –
18 | AUAAAAGCGCCAGAACUACAGAAAUGUAGUUGACGAGGAGGAGGUAUAUCAAAUUUUCGGCGGAUGCCUCCAAA | < 1e-05 | < 1e-05 | < 1e-05 | – | < 1e-05
19 | AUAAAAGCGCCAGAACUACAGAAAUGUAGUUGACGAGGAGGAGGUUAAUCGAAUUUUCGGCGGAUGCCUUCAAA | 0.000803 ± 0.00012 | 0.00993 ± 0.0023 | 0.00118 ± 0.00023 | 0.0018 ± 0.00029 | 0.00221 ± 0.00048
20 | AUAAAAGCGCCAGAACUACAGAAAUGUAGUUGACGAGGAGGAGGUGUAUCGGAUUUUCGGAGGAUGCCUCCAAA | < 1e-05 | – | – | – | –
21 | AUAAAAGCGCCAGAACUACAGAAAUGUAGUUGACGAGGAGGAGGUUAAUCGAAUUUUCGACGGAUGCCUCCAAA | < 1e-05 | – | < 1e-05 | – | < 1e-05
22 | AUAAAAGCGCCAGAACUACAGAAAUGUAGUUGACGAGGAGGAGGUGUAUCGAAUUUUCGGCGGAUGGGUCCAAA | 2.82e-05 ± 1.4e-05 | – | – | – | 7.29e-05 ± 2.5e-05
23 | AUAAAAGCGCCAGAACUACAGAAAUGUAGUUGACGAGGAGGAGGUAUAUGGAUUUUUCGGCGGAUGCCUGCAAA | 0.000147 ± 6.3e-05 | 0.000126 ± 3.8e-05 | – | – | –
